In PMC5509211 (2017):
No end group written: not given here.

Columns and labels:
[1] = biological target: actin filaments (endocytic patches) (Schizosaccharomyces pombe, UniProt P10989); experiment: live-cell fluorescence titration
[2] = biological target: actin filaments (contractile ring) (Schizosaccharomyces pombe, UniProt P10989); experiment: live-cell fluorescence titration

MGVADLIKKFESISKEE (also: mEGFP fusion) [mEGFP-Lifeact] showed a Kd [1] of 20 µM and a Kd [2] of 6.2 µM.
